Data taken from a protein production outcome set (Wang et al. 2014).

Test: label from the status in PepcDB records

| Sequence | protein production |
| --- | --- |
| MGTETVVHDQARWAMAAMERRLAVAKAQLLQQQQQKNEKDKKGTSDVDVSMKESHQADSLPTPSKTSIKKVDPKDDDSVAYTKLSHPVDENLLATNVKFSSAKGTIVDKVLHNLLRSGDSAQKYLQGTKSVKLDNYILLDNFVQSRSSASGSKKASQKDSKRSKSRMSMKRLKKSGALHIPKDLQKFDLFKPMHGMWESYMMKLIKVTGKIQLSLTLLSADLHGAFMFGNPSFFHKSVVLGYDLLSLTHFPKLNFSQPILLVTVAECKIASFTGVQGIMVRETSETFGIITRDDKFRGILKLFSPIYLP | failed |
| MPIIIDKDLPARKVLQEENIFVMTKERAETQDIRALKIAILNLMPTKQETEAQLLRLIGNTPLQLDVHLLHMESHLSRNVAQEHLTSFYKTFRDIENEKFDGLIITGAPVETLSFEEVDYWEELKRIMEYSKTNVTSTLHICWGAQAGLYHHYGVQKYPLKEKMFGVFEHEVREQHVKLLQGFDELFFAPHSRHTEVRESDIREVKELTLLANSEEAGVHLVIGQEGRQVFALGHSEYSCDTLKQEYERDRDKGLNIDVPKNYFKHDNPNEKPLVRWRSHGNLLFSNWLNYYVYQETPYVL | not failed |
| MVKTKKEDLNQFLIPRLNTIYETLQLFDGTASPTVERVNWNDVLQMSDHLSKQATIVGMLWTGESPKADSLKETMESYFNALQGFLLCCHGSTLGAGPTLSSIIHVSVKQIVDSSFRLLQGSVSLYEGSYEKDKKPSIPQLSGVVWEACSSFKKVPATNITAIGRAITQVAVSMKDVLREMKEVKPACPLSECEASGDNMSSDDDDDDDLGDDLSPEEMEVATMVTEIVSETIMVIKELIRVITGMIKMENPKDNSGFVESLEKLLKLCQGTGVQIDELGACVYPPQEMNKMKQTVKVIQGNLDEFETEVERLKSSSDGFSGACGKLRNSLKHMETELDKRCEAELVVEMQNVTLDS | failed |
| MQNNSYGYAVSVRVGGKEHRHWERYDIDSDFLIPADSFDFVIGRLGPEAAIPDLSGESCEVVIDGQIVMTGIIGSQRHGKSKGSRELSLSGRDLAGFLVDCSAPQLNVKGMTVLDAAKKLAAPWPQIKAVVLKAENNPALGKIDIEPGETVWQALTHIANSVGLHPWLEPDGTLVVGGADYSSPPVATLCWSRTDSRCNIERMDIEWDTDNRFSEVTFLAQSHGRSGDSAKHDLKWVYKDPTMTLHRPKTVVVSDADNLAALQKQAKKQLADWRLEGFTLTITVGGHKTRDGVLWQPGLRVHVIDDEHGIDAVFFLMGRRFMLSRMDGTQTELRLKEDGIWTPDAYPK | not failed |
| MKRSFSMMTDKRKLHRKKMKRKKRRRRLMFGCLLLFLVLAASGLGYASFLMHKMKTAMNEAYEEIGAKKNTGDHLDPKKDSFTVLFIGIDDSKTRNFKSDTRSDALILAAFNADTQLVKMVSIPRDSYVYIPCEDKYDKITHAHAYGGTKCTIESIERLFDIPIDYYVKMNFYAFIDVVDALGGIEVEVPYNIREKDAEDNRNAIVLKKGYQHLNGEEALALARTRKKDNDIERGKRQQQILQAILKKASHAGSISKYDDVIEAIGSNMKTNFTFDDIKALIYYVSTGNPLQTESLVLQGTDDNEGVYYYRLDEESVQQISDALRSQLHASAGTQLEKERN | failed |
| MKKTLIALMLGTISFTTFANDYLPSGGYETLETRSGQLTFENGFEHGVPTNKTSQKLFDELDYQRAVQGYIWATPIVSFYKWKNDHYQTWGTENGQLVYQAGYESKLGGLTYNTSTPYLIGYMNLNNGPIVINLPDTQLRGAVHNMWQIGKEQMTKPGKYVIYKAGDVAPKVKGATLIAMDTNDFFFGVRLMNKDAKVRSTMMNSIQKGITDINGNQLTNKGIYHVKRGIDHKQPRGMEFWEVVNQAIQANPVQERDRMMMDMLRPLGIEKGKPFIPTPKQQSLLKEAAIVGEAMTKNIDFNKTGRLDHAEYGPKGNPWEIATASTPNQDRNNGMDLDGRAAWFYEAVTNDIAMHGMDNGGWGQVYLDNYYSGEKDHGLDGGKHYTLTIKNPNTYADLFWTITVYNVENRAIIENDLGRADVGSNIKGSVYNKDGSITLHFSPKKPKGVAEANWVQTNEKEGWFVYFRAYSPKKAFVDEEPKTLLPNFEEVK | failed |
| MLSIIVPSYNRKAEVPALLESLTQQTSSNFEVIIVDDCSKERVVVEQSYSFPVTVIRNETNQGAAESRNVGARTSKGDWLLFLDDDDCFMPEKCEKVLQVIEQNPNINFIYHPAKCEMVNEGFTYVTQPIEPQEISTERILLANKIGGMPMIAIKKEMFLKIGGLSTALRSLEDYDFLLKLLQEPSFTPYKINEPLTYCTFHTKRSSVSTDTTNTQKAIDYIREHYVKTVEQARNFDINASYILAYPHIMNLSRKAAKYYFDIFKKTKSIKQFIITLVILISPKLAINLKRLGK | failed |
| MNLPSRQWSSEVRQLVFIGFSAITAVVLSYSYVATVGLSEMLFAIVGAGLLLALVVILPVILLD | failed |
| MSHDHHHHHGPGAAHGAGGHSHAPQDFGRAFAIGIALNMVFVVAEAAFGYFSNSMALIADAGHNLSDVAGLVVAWIAAGLSKRPPSARYTYGLRGSSILAALFNAVFLLLAVGAIGWEAVVRLFAPEPVAGITVMVVAGIGIVINAVTAWLFASGRHSDLNIRGAYLHMAADAAVSAAVVVAGVIILSTGWYWIDPAVSLIVAVVIVWGTWGLLRDSTALSLAAVPRDIDPTAVRAFLSKLPGVTQVHDLHIWGMSTTEVALTCHLVMPGGSPGDPFLVDLAHELQHDFGIAHTTVQIETDPNTVCALAPEHVV | failed |
| MEGFLMKKTWIALSLLIAFSASSLLPMQAKEATLPKDERYHLVNTSEKGEYELLNTYDSYTEAEKNFQRLSKKYNNLGITYGDSFLQVEQGVVAFPTNSDCSLNTDYILDETNTNGYLNGCYGGDAAFLEYDSYTNQIKFKISGVVAWSDATALTVYPIEKLPNVSSFIVKDGILYHQLKSSATSPSFSSVLPLSKAPSYLKESTTYYSYDTHYFYEAYDQLIKDERLATHQHAINAKKPYYNYYQYLDHRSTTDYTPKQIQSYFKQNLGFQANITNFYDTDNYVHDILTQSLLYGNSEAFFQYQNQFGANALMMLSLSLNESALGKSYIAYNKNNLFGHAAFDSSAEESASRYQSVAASVYSHALHYLSESYLNPEAFQYYGGYFGNKAGGMNVAYASDPYWGEKSASYFMRMDRDMGYQDENNYQLGIAQGQAVKVYASASKKAKLLYTTEEGYDASFILQKKIKNKSGTWYQVQSDIALTKSKESIQDGSYPFATSIGYVKADDIDVITGAEKAANKSYLPITFDAVDGSFYPNTSSITLFVEKGQMPVILDPIKENALFDGWDITLEPATNALTYKATYKHIKNIEVIEKPQTKYNLGDTLNLKHGKIRVTFEDGSSKEVALNNDMVSGFHNDQSGKQRLTITYGGSTTYYDIEMDNQQEERINDVKKQAAHVIKTYMGKVGLNSEALDELIRLRNQLGQFDMQVLPRDQIRVIDRILQENLEPRYSVIIKDDTYDMQVSGLSIALQGESSFLNNIMPKTLRLDVNNDIPKEEKQFVEKVAKANGMNVASYLAIEGTDDFSTLKLQSQLVYSIQKPKKDIDHRIYSVYYISGKDIYQLPTTQSKNRIVFPNDKLGHYAVVWKHADSITHSKDFQEVNTIKQNGKDYIKVYILLPCIIILLTLALLALILYMRKRKIKPFKA | failed |
| MKKLIFLTLSIVSFNNYAVDFVYRVDSTPPDVIFRDGFSLLGYNRNFQQFISGRSCSGGSSDSRYIATTSSVNQTYAIARAYYSRSTFKGNLYRYQIRADNNFYSLLPSITYLETQGGHFNAYEKTMMRLQREYVSTLSILPENIQKAVALVYDSATGLVKDGVSTMNASYLGLSTTSNPGVIPFLPEPQTYTQQRIDAFGPLISSCFSIGSVCQSHRGQRADVYNMSFYDARPVIELILSK | failed |
| MQECTNVQVSKMMLSAPQHLVGGSVSEITPNRDLSLDSMHTSQVKQNIRALWTALVLLSVFFCIELSAGIWSHSLSLLADAEHILSDVAALGLALIASWLSQSISQRTIFGRYKLEVLAALINGISLACIACWIVREALVRLQSPTTEILGVPMLTTALIGVGVNSFNALCLHKCSHKDLNIRGALLHLIADLASSVGAVLAAIAIIWLNWTWADGVISLVVAMLIASFAAYLLIQSVQCLRGQIADISDIACMCPPQSEVCVDRQQAEKLLFPTLEELVQ | failed |
| MKEKIPFYNEKEFHYMMKKTKKGTFSGWYIINPENNSVEFSGSFNRQFKLNKPVIPVNTEYVTRKEFNEYKDSNDQRLTKIENKVDKLEIKVDKLEKKVDKLEVKVDKLVETVNAQGEDLNNFKVEVRGTLQSQGETLQLILQTLQGMSKRLDSVEGRLDSMDGRLDSMETRLDKIDPLKLEHHHHHH | failed |
| MLNHPTHERLIELGLTGMAKAFEEQRRSPDLEALPFEDRIGLLVDREAAERDTRRLTTRLKIAALRQTACVEDVDLRTPRGIDRAVFAKLVEGRWIDRHENLLVTGATGLGKSWLACALGHKACRDNRSVLYHRVPRLFEALALARGDGRYARLLKSLGRAQLLILDDWGLSVLTAAERRDLLEILEDRHGRASTIVTSQLPVDTWHGAIGDPTVADAILDRLVHNAHRLQLTGESMRKRSAKTITLDGQPEH | failed |
| MTCEGRRTMTQPISLGHRMSLIDLYDLRMPQRTGTYVLHEENLAIIETGPSPSVPHLLAGLKALHIDPADIRYIIVTHIHLDHAGGVGVLLEHCPNATVIVHPKGKRHLADPSRLIAGAKAVYGEQFDALFDPIVPVPEERLLVKEDGETLVLSAERTLTFYDTPGHANHHFSIYDSYSGGVFTGDTIGVFYPQLQEAGLAFCLPSTSPNQFNPEAMKQSAERLEKLNPTRIYFGHFGALDQPEEAFRQLRFWLPKFVAAGKEVIARHPEAPAAEQAKAVTKLLHNDITAFLNECSIPASSPVYKVIELDLQVCAMGIIDYWRKQRLEHHHHHH | not failed |
| MWIGSVFMRKSFVISLLSAGILLAGCQAVNTTSGGAVGVERQQYMFSMLSTDEVNQMYAQSYQQTLGEASSKGVLDKSSADAKRVQAIANRLIAQAPKFRPDAAQWDWQVNVIKSDELNANCGPGGKIIVYTGLIDQLKLTDAEIAAVVGHEIAHALREHSREAMSKAYGVEMARQGAGAIFGLGQSSMAMADTVVNYAMTLPNSRANENEADLIGLELSARAGYDPNAAITLWNKMSKASEGAPPEFMSTHPASASRIASLQAAIPKVMPLYQAAAKP | failed |
| MAYAHVFASLTISTISLRRFLPRLHRNHSVKPNSRIICNLKLNYSAGKFREMGLSRSVELDQFITSEEEEGEAEEIGEGFFEAIEELERMTREPSDILEEMNHRLSSRELQLMLVYFAQEGRDSWCTLEVFEWLKKENRVDEEIMELMVSIMCGWVKKLIEDECNAHQVFDLLIEMDCVGLKPGFSMMDKVIALYCEMGKKESAVLFVKEVLRRRDGFGYSVVGGGGSEGRKGGPVGYLAWKFMVDGDYRKAVDMVMELRLSGLKPEAYSYLIAMTAIVKELNSLGKTLRELKRFARAGFVAEIDDHDRVLIEKYQSETLSRGLQLATWAVEEGQENDSIIGVVHERLLAMYICAGRGPEAEKQLWKMKLAGREPEADLHDIVMAICASQKEVNAVSRLLTRVEFMGSQRKKKTLSWLLRGYVKGGHFEEAAETLVSMIDSGLHPEYIDRVAVMQGMTRKIQRPRDVEAYMSLCKRLFDAGLPKTNLNDLRTSVSSYVFLKLSESEGESKAGGRNKNHRGKIVMELEDPTMADSTIKLTVKFGGKSIPLSVSPDCTVKDLKSQLQPITNVLPRGQKLIFKGKVLVETSTLKQSDVGSGAKLMLMASQGLHQGEGPILKEASIRPISRTVVSDKVDQRKPSVLVDKNRTDRWKATGVIALAQANLKEIPEEVWDCGSGVRVLDISENFIKEVPAKISSFGSMQKLFLQGNGLSDESIQWEGIASLKRLMLLSISHNNLTVLPSAMGSLTSLRQLDVTNNKLTSLPNELGLLTQLEILKANNNRITSLPESIGNCSFLMEVDLSANIISELPETFTKLRNLKTLELNNTGLKTLPSALFKMCLQLSTLGLHNTEITVEFLRQFEGYDDFDERRRTKHQKQLDFRVVGSGQFDEGADKSW | failed |
